According to publication PMC8385403:
Blank lines part the entries; values can stand above or below the substance they belong to.

How the values were obtained:
[1] = molecular target: Rod-B; assay: co-sedimentation; filament disassembly assay without His-Aurora-B; Rod-B proteins in kinase buffer (20 mM Tris pH 7.5, 10 mM MgCl2, 1 mM DTT, 50 μM ATP), 60 min at 30 °C, then high-speed centrifugation; filaments to nonfilamentous fraction
[2] = molecular target: His-survivin (UniProt O15392); assay: pull-down (quantification of Coomassie-stained SDS-PAGE); settings: mean ± SEM of three independent experiments; parent: est. 1.0; read off a plot
[3] = molecular target: Rod-B phosphorylated by His-Aurora-B; assay: co-sedimentation; filament disassembly assay with His-Aurora-B; Rod-B proteins with recombinant His-Aurora-B in kinase buffer (20 mM Tris pH 7.5, 10 mM MgCl2, 1 mM DTT, 50 μM ATP), 60 min at 30 °C, then high-speed centrifugation; filaments to nonfilamentous fraction
[4] = molecular target: Rod-B^T1847A; assay: co-sedimentation; filament disassembly assay without His-Aurora-B; Rod-B proteins in kinase buffer (20 mM Tris pH 7.5, 10 mM MgCl2, 1 mM DTT, 50 μM ATP), 60 min at 30 °C, then high-speed centrifugation; filaments to nonfilamentous fraction
[5] = molecular target: Rod-B^T1847A; assay: co-sedimentation; filament disassembly assay with His-Aurora-B; Rod-B proteins with recombinant His-Aurora-B in kinase buffer (20 mM Tris pH 7.5, 10 mM MgCl2, 1 mM DTT, 50 μM ATP), 60 min at 30 °C, then high-speed centrifugation; filaments to nonfilamentous fraction
[6] = molecular target: His-survivin (UniProt O15392); assay: pull-down; direct pull-down; His-survivin proteins (40-45 μg) held on Ni2+-NTA beads, Rod-B proteins (40-45 μg) added; Buffer B: 20 mM Tris-HCl pH 8, 275 mM NaCl, 5% glycerol, 1% NP-40, 30 mM imidazole; 4 °C; eluted with 250 mM imidazole; Coomassie-stained SDS-PAGE

Chain of Rod-B phosphorylated by His-Aurora-B (P35580 whole entry): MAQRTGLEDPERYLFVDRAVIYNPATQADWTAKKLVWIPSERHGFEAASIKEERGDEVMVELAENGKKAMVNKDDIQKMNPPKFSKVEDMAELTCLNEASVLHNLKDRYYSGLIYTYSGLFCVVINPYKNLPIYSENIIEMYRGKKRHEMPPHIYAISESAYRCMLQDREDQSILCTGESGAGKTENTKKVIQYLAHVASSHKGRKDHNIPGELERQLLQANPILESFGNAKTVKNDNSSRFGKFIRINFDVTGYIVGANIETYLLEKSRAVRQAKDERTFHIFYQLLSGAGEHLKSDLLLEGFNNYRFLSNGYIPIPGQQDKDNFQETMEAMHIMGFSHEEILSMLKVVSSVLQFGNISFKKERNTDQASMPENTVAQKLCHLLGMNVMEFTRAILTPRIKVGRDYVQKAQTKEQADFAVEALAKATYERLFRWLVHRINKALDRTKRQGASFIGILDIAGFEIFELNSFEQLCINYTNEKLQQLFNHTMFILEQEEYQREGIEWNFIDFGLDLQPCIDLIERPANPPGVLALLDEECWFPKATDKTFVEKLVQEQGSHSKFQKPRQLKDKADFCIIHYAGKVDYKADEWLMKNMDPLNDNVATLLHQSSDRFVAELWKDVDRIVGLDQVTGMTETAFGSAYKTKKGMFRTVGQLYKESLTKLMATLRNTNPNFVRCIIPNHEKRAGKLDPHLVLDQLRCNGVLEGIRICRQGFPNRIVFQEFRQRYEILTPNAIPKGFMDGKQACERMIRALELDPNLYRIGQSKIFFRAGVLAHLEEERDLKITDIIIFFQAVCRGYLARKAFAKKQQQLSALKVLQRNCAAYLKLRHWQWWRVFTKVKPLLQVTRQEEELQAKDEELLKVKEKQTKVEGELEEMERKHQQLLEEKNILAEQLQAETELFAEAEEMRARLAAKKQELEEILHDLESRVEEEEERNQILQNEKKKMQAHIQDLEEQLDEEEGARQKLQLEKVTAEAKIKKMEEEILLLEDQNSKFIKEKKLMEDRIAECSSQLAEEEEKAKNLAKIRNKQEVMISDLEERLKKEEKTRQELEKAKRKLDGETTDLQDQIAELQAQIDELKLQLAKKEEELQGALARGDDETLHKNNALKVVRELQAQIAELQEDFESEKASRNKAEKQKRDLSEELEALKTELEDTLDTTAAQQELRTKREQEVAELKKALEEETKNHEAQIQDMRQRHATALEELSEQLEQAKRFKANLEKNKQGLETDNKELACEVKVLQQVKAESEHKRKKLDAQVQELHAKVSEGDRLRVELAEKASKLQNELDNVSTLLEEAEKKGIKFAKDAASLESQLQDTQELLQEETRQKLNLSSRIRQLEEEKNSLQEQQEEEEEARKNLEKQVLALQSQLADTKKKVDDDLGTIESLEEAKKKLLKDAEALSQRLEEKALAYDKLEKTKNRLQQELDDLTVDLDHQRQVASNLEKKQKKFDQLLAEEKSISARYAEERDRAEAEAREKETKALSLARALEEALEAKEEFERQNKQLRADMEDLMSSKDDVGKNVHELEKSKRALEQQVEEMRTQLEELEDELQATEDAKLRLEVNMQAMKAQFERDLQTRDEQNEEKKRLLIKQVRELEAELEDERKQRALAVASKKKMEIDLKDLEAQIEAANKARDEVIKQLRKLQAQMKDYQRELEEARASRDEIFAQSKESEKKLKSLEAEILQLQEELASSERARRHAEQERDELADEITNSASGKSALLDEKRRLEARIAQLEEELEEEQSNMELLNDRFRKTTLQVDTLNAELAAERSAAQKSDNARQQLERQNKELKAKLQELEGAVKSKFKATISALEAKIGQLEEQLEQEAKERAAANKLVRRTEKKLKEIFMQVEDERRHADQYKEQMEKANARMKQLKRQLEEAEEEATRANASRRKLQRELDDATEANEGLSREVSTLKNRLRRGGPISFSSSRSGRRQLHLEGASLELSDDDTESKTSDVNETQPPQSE
Chain of Rod-B (P35580 whole entry): as above

- percent in the nonfilamentous fraction [1]: 28%
Substance: Rod-B (domain or fragment)

Substance: Rod-B T1847A
- ratio to parent [2]: 1.1

- percent in the nonfilamentous fraction [3]: 42%
Substance: Rod-B phosphorylated by His-Aurora-B (domain or fragment)

- percent in the nonfilamentous fraction [4]: 34%
- percent in the nonfilamentous fraction [5]: 36.8%
Substance: Rod-B^T1847A (domain or fragment)

Substance: Rod-B^T1847D (domain or fragment)
- percent reduction of binding to survivin relative to Rod-B [6]: 80%
